B1: KRT33B (parent)
chain: YQSYFKTIEELQQKILCSKSENAR

Variants of: B1
Assay: protein stability index of a GFP-peptide fusion (GPS, HEK-293T) (PSI 1-6); higher = more stable
Details: c terminus: a fixed tail appended
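Further: lentivirally expressed fusions sorted by FACS into six bins by GFP to DsRed ratio, PSI derived from sequencing read proportions per bin multiplied by bin number.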

Variant	protein stability index
YQSMFKTIEELQQKILCSKSENAR	2.11
YQSPFKTIEELQQKILCSKSENAR	1.73
YQSRFKTIEELQQKILCSKSENAR	2.25
YQSCFKTIEELQQKILCSKSENAR	2.01
YQSFFKTIEELQQKILCSKSENAR	1.85
YQSEFKTIEELQQKILCSKSENAR	1.88
YQSGFKTIEELQQKILCSKSENAR	2.08
YWSYFKTIEELQQKILCSKSENAR	2.15
YGSYFKTIEELQQKILCSKSENAR	2.14
YMSYFKTIEELQQKILCSKSENAR	2.65
YESYFKTIEELQQKILCSKSENAR	3.37
YPSYFKTIEELQQKILCSKSENAR	2.77
YCSYFKTIEELQQKILCSKSENAR	1.52
YFSYFKTIEELQQKILCSKSENAR	2.5
YSSYFKTIEELQQKILCSKSENAR	2.22
YNSYFKTIEELQQKILCSKSENAR	2.16
YQSYFKTYEELQQKILCSKSENAR	1.93
YQSYFKTGEELQQKILCSKSENAR	1.78
YQSYFKTCEELQQKILCSKSENAR	1.84
YQSYFKTAEELQQKILCSKSENAR	2.44
YQSYFKTKEELQQKILCSKSENAR	2.42
YQSYFKTDEELQQKILCSKSENAR	2.07
YQSYFKTPEELQQKILCSKSENAR	2.78
YQSYFKTNEELQQKILCSKSENAR	2.19

Variant	protein stability index
YQSYFKTLEELQQKILCSKSENAR	2.41
YQSYFKTIEYLQQKILCSKSENAR	2.52
YQSYFKTIEFLQQKILCSKSENAR	2.13
YQSYFKTIEKLQQKILCSKSENAR	2.44
YQSYFKTIELLQQKILCSKSENAR	1.63
YQSYFKTIEVLQQKILCSKSENAR	2.28
YQSYFKTIEALQQKILCSKSENAR	2.02
YQSYFKTIETLQQKILCSKSENAR	1.87
WQSYFKTIEELQQKILCSKSENAR	2.98
GQSYFKTIEELQQKILCSKSENAR	3.08
CQSYFKTIEELQQKILCSKSENAR	2.69
SQSYFKTIEELQQKILCSKSENAR	3.62
RQSYFKTIEELQQKILCSKSENAR	3.15
AQSYFKTIEELQQKILCSKSENAR	3.35
LQSYFKTIEELQQKILCSKSENAR	1.89
QQSYFKTIEELQQKILCSKSENAR	3.32
EQSYFKTIEELQQKILCSKSENAR	3.49
YQSYFKTIEENQQKILCSKSENAR	2.09
YQSYFKTIEEDQQKILCSKSENAR	1.79
YQSYFKTIEEHQQKILCSKSENAR	2.1
YQSYFKTIEEVQQKILCSKSENAR	2.01
YQSYFKTIEEAQQKILCSKSENAR	2.41
YQSYFKTIEELQQKILCSMSENAR	1.69
YQSYFKTIEELQQKILCSYSENAR	1.84

Variant	protein stability index
YQSYFKTIEELQQKILCSPSENAR	2.14
YQSYFKTIEELQQKILCSASENAR	1.72
YQSYFKTIEELQQKILCSGSENAR	2.08
YQSYFKTIEELQQKILCSCSENAR	1.84
YQSYFKTIEELQQKILCSISENAR	1.71
YQSYFKTIEELQQKILCSVSENAR	1.7
YQSYFKTIEELQQKILCSDSENAR	1.72
YQSYFKTIEELQQKILCSFSENAR	1.7
YQSYFKTIEELQQMILCSKSENAR	2.28
YQSYFKTIEELQQYILCSKSENAR	1.61
YQSYFKTIEELQQIILCSKSENAR	1.66
YQSYFKTIEELQQDILCSKSENAR	1.68
YQSYFKTIEELQQVILCSKSENAR	1.65
YQSYFKTIEELQQQILCSKSENAR	2.78
YQSYFKTIEELQQTILCSKSENAR	1.56
YQSYFKTIEELQQKILCSKSENVR	2.35
YQSYFKTIEELQQKILCSKSENSR	2.21
YQSYFKTIEELQQKILCSKSENRR	2.13
YQSYFKTIEELQQKILCSKSENFR	1.47
YQSYFKTIEELQQKILCSKSENER	2.77
YQSYFKTIEELQQKILCSKSENYR	1.64
YQSYFKTIEELQQKILCSKSENMR	2.11
YQSYFKTIEELQQKILCSKSENGR	2.03
YQSYFKTIEELQQKRLCSKSENAR	1.93

Variant	protein stability index
YQSYFKTIEELQQKALCSKSENAR	2.14
YQSYFKTIEELQQKFLCSKSENAR	2
YQSYFKTIEELQQKMLCSKSENAR	2.07
YQSYFKTIEELQQKYLCSKSENAR	1.73
YQSYFKTIEELQQKHLCSKSENAR	2.52
YQSYFKTIEELQQKCLCSKSENAR	3.74
YQSYFKTIEELQQKILCSKSCNAR	1.79
YQSYFKTIEELQQKILCSKSKNAR	1.79
YQSYFKTIEELQQKILCSKSGNAR	1.72
YQSYFKTIEELQQKILCSKSDNAR	1.77
YQSYFKTIEELQQKILCSKSWNAR	1.28
YQSYFKTIEELQQKILCSKSVNAR	1.65
YQSYFKTIEELQQKILCSKSFNAR	2.06
YQSYFKTIEELQQKILCSKSMNAR	2.13
YQSYFKTIEELQQKILCSKSANAR	1.86
YQSYFKTIEELQQKILCSKSSNAR	1.54
YQSYFKTIEELQQKILCSKSLNAR	1.7
YQSYFKTIEELQQKILCSKSENAL	2.15
YQSYFKTIEELQQKILCSKSENAP	2.13
YQSYFKTIEELQQKILCSKSENAI	1.79
YQSYFKTIEELQQKIVCSKSENAR	2.89
YQSYFKTIEELQQKIECSKSENAR	1.73
YQSYFKTIEELQQKIWCSKSENAR	2.1
YQSYFKTIEELQQKITCSKSENAR	1.55

Variant	protein stability index
YQSYFKTIEELQQKIRCSKSENAR	2.49
YQSYFKTIEELQQKIICSKSENAR	2.14
YQSYFKTIEELQQKIMCSKSENAR	1.85
YQSYFKTIEELQQKISCSKSENAR	2
YQSYFKTIEELQQKICCSKSENAR	2.52
YQSYFKTIEELQQKINCSKSENAR	1.84
YQSYFKTIEELQQKILQSKSENAR	1.89
YQSYFKTIEELQQKILHSKSENAR	2.31
YQSYFKTIEELQQKILASKSENAR	2.16
YQSYFKTIEELQQKILPSKSENAR	1.77
YQSYFKTIEELRQKILCSKSENAR	2.11
YQSYFKTIEELWQKILCSKSENAR	1.91
YQSYFKTIEELDQKILCSKSENAR	2.07
YQSYFKTIEELYQKILCSKSENAR	1.97
YQSYFKTIEELFQKILCSKSENAR	2.98
YQSYFKTIEELMQKILCSKSENAR	1.53
YQSYFKHIEELQQKILCSKSENAR	2.31
YQSYFKIIEELQQKILCSKSENAR	1.97
YQSYFKCIEELQQKILCSKSENAR	2.1
YQSYFKYIEELQQKILCSKSENAR	2.08
YQSYFKWIEELQQKILCSKSENAR	1.8
YQSYFKGIEELQQKILCSKSENAR	1.8
YQSYFKTIEELQVKILCSKSENAR	1.78
YQSYFKTIEELQSKILCSKSENAR	1.86

Variant	protein stability index
YQSYFKTIEELQIKILCSKSENAR	1.35
YQSYFKTIEELQRKILCSKSENAR	1.68
YQSYFKTIEELQLKILCSKSENAR	2.2
YQSYFKTIEELQTKILCSKSENAR	2.23
YQSYFKTIEELQFKILCSKSENAR	2.04
YQSYFKTIEELQEKILCSKSENAR	1.81
YQSYFKTIEELQHKILCSKSENAR	2.09
YQSYFKTIEELQQKILCYKSENAR	2.21
YQSYFKTIEELQQKILCDKSENAR	1.9
YQSYFKTIEELQQKILCGKSENAR	2.21
YQSYFKTIEELQQKILCVKSENAR	1.73
YQSYFKTIEELQQKILCFKSENAR	1.68
YQSYFKTIEELQQKILCLKSENAR	1.79
YQSYFKTIEELQQKILCMKSENAR	2.18
YQSYFKTIEELQQKILCTKSENAR	2
YQSYFKTIEELQQKILCIKSENAR	2.42
YQSYFWTIEELQQKILCSKSENAR	2.07
YQSYFMTIEELQQKILCSKSENAR	1.8
YQSYFATIEELQQKILCSKSENAR	1.43
YQSYFETIEELQQKILCSKSENAR	1.93
YQSYFTTIEELQQKILCSKSENAR	1.79
YQSYFYTIEELQQKILCSKSENAR	2.55
YQSYFITIEELQQKILCSKSENAR	2.52
YQSYFKTIVELQQKILCSKSENAR	1.98

Variant	protein stability index
YQSYFKTIFELQQKILCSKSENAR	1.53
YQSYFKTIWELQQKILCSKSENAR	1.71
YQSYFKTIGELQQKILCSKSENAR	1.86
YQSYMKTIEELQQKILCSKSENAR	3.48
YQSYKKTIEELQQKILCSKSENAR	2.38
YQSYEKTIEELQQKILCSKSENAR	3.79
YQSYQKTIEELQQKILCSKSENAR	2.78
YQSYWKTIEELQQKILCSKSENAR	2.44
YQSYTKTIEELQQKILCSKSENAR	2.59
YQSYPKTIEELQQKILCSKSENAR	2.17
YQSYCKTIEELQQKILCSKSENAR	2.16
YQSYFKTIEELQQKILCSKHENAR	1.82
YQSYFKTIEELQQKILCSKVENAR	2.04
YQSYFKTIEELQQKILCSKDENAR	2.32
YQSYFKTIEELQQKILCSKNENAR	2.13
YQSYFKTIEELQQKILCSKMENAR	1.63
YQSYFKTIEELQQKILCSKIENAR	1.92
YQSYFKTIEELQQKILCSKQENAR	1.81
YQSYFKTIEELQQKILCSKKENAR	2.05
YQSYFKTIEELQQKILCSKFENAR	1.97
YQSYFKTIEELQQKILCSKAENAR	2.02
YQSYFKTIEELQQKILCSKCENAR	1.95
YQSYFKTIEELQQKILCSKSEDAR	1.82
YQSYFKTIEELQQKILCSKSECAR	2.3

Variant	protein stability index
YQSYFKTIEELQQKILCSKSEVAR	1.89
YQSYFKTIEELQQKILCSKSEMAR	1.93
YQSYFKTIEELQQKILCSKSEGAR	1.99
YQSYFKTIEELQQKILCSKSEAAR	2.31
YQSYFKTIEELQQKILCSKSELAR	1.86
YQSYFKTIEELQQKILCSKSESAR	2.5
YQSYFKTIEELQQKILCSKSEFAR	1.67
YQSYFKTIEELQQKILCSKSEHAR	2.18
YQSYFKTIEELQQKILCSKSEWAR	1.9
YQDYFKTIEELQQKILCSKSENAR	2.18
YQIYFKTIEELQQKILCSKSENAR	1.67
YQCYFKTIEELQQKILCSKSENAR	2.11
YQWYFKTIEELQQKILCSKSENAR	1.79
YQTYFKTIEELQQKILCSKSENAR	1.9
YQRYFKTIEELQQKILCSKSENAR	1.25
YQVYFKTIEELQQKILCSKSENAR	1.6
YQPYFKTIEELQQKILCSKSENAR	2.41
YQLYFKTIEELQQKILCSKSENAR	1.96
YQAYFKTIEELQQKILCSKSENAR	2.87
YQKYFKTIEELQQKILCSKSENAR	1.98

From the supplement of paper PMC10567573
